Assay results from patent US20190359693A1.

Tests used:
Assay in all cases: cell-based or functional assay
[1] = target: HA of H1N1 A/New Caledonia/20/1999 (influenza A virus)
[2] = target: HA of H3N2 A/Brisbane/10/2007 (influenza A virus)
[3] = target: HA of H5N1 A/Vietnam/1194/04 (influenza A virus)
[4] = target: HA of H7N3 A/NIBRG/60 (A/mallard/NL/12/00) (influenza A virus)
[5] = target: hemagglutinin (HA) of influenza virus H3N2 A/Brisbane/10/07 (influenza A virus)
[6] = target: hemagglutinin (HA) of influenza virus H5N1 A/Vietnam/1194/04 (influenza A virus)
[7] = target: hemagglutinin (HA) of influenza virus H7N3 A/NIBRG/60 (A/mallard/Netherlands/12/00) (influenza A virus)
[8] = target: hemagglutinin (HA) of influenza virus B/Florida/04/06 (Yamagata) (influenza B virus)
[9] = target: hemagglutinin (HA) of influenza virus B/Lee/40 (Old) (influenza B virus) (UniProt P03460)
[10] = target: hemagglutinin (HA) of influenza virus H1N1 A/Puerto Rico/8/34-MA (influenza A virus)
[11] = target: hemagglutinin (HA) of influenza virus H3N2 A/Wisconsin/67/05 (influenza A virus)
[12] = target: hemagglutinin (HA) of influenza virus H1N1 A/New Caledonia/20/99 (influenza A virus)

B1: SD1074 (VHH)
VHH: EVQLVESGGGLVQAGGSLRLSCAASRNFDAIGAMGWYRQAPGKQRELVAEITSDGSTNYTDSVKGRFTISRDNALRTMYLQMNALEPEDTAVYYCKADISIYGLTNFPYWGQGTQVTVSS
VNA titer [1]: 113 nM | VNA titer [2]: > 1000 nM | VNA titer [3]: 638 nM | VNA titer [4]: > 1000 nM

B2: SD1047 (VHH)
VHH: EVQLVESGGGLVQAGGSLRISCAASGRTYAMAWFRQAPGKEREFVAHINALGTRTYYSDSVKDRFTISRDNAKNTEYLQMNSLKPEDTAVYYCVAGGQWRAAPVAAAESYDFWGQGTQVTVSS
VNA titer [3]: > 1000 nM | VNA titer [4]: 510 nM

B3: MD2308 (bispecific antibody)
chain: EVQLVESGGGLVQAGDSLRISCAASGRTLSIYSMGWFRQAPGKEREFVATIGWNSGRTFYPDSLKGRFTISRDNARNTLYLQMNNLRPEDTAVYYCAAAKGPLRLSSQADYWGQGTQVTVSSGGGGSGGGGSEVQLVESGGGLVQPGGSLRLSCAATGFTLENKAIGWFRQTPGSEREGVLCISKSGSWTYYTDSMRGRFTISRDNAENTVYLQMDSLKPEDTAVYYCATTTAGGGLCWDGTTFSRLASSWGQGTQVTVSSGGGGSGGGGSEVQLVESGGGLVQAGDSLRLSCAASGPTFGMSAMGWFRQAPGKEREFVAAISGLGNPNYSDDVKGRFTISRENGRNTVYLQMNSLKPEDTAVYYCAQRKVYHVQGGDRPQAYDYWGQGTQVTVSS
average neutralization titer [5]: 15.3 nM | average neutralization titer [6]: 21.6 nM | average neutralization titer [7]: 12.8 nM

B4: MD2309 (bispecific antibody)
chain: EVQLVESGGGLVQAGDSLRISCAASGRTLSIYSMGWFRQAPGKEREFVATIGWNSGRTFYPDSLKGRFTISRDNARNTLYLQMNNLRPEDTAVYYCAAAKGPLRLSSQADYWGQGTQVTVSSGGGGSGGGGSEVQLVESGGGLVQAGDSLRLSCAASGPTFGMSAMGWFRQAPGKEREFVAAISGLGNPNYSDDVKGRFTISRENGRNTVYLQMNSLKPEDTAVYYCAQRKVYHVQGGDRPQAYDYWGQGTQVTVSSGGGGSGGGGSEVQLVESGGGLVQPGGSLRLSCAATGFTLENKAIGWFRQTPGSEREGVLCISKSGSWTYYTDSMRGRFTISRDNAENTVYLQMDSLKPEDTAVYYCATTTAGGGLCWDGTTFSRLASSWGQGTQVTVSS
average neutralization titer [5]: 12.8 nM | average neutralization titer [6]: 12.8 nM | average neutralization titer [7]: 9.1 nM

B5: MD2310 (bispecific antibody)
chain: EVQLVESGGGLVQPGGSLRLSCAATGFTLENKAIGWFRQTPGSEREGVLCISKSGSWTYYTDSMRGRFTISRDNAENTVYLQMDSLKPEDTAVYYCATTTAGGGLCWDGTTFSRLASSWGQGTQVTVSSGGGGSGGGGSEVQLVESGGGLVQAGDSLRLSCAASGPTFGMSAMGWFRQAPGKEREFVAAISGLGNPNYSDDVKGRFTISRENGRNTVYLQMNSLKPEDTAVYYCAQRKVYHVQGGDRPQAYDYWGQGTQVTVSSGGGGSGGGGSEVQLVESGGGLVQAGDSLRISCAASGRTLSIYSMGWFRQAPGKEREFVATIGWNSGRTFYPDSLKGRFTISRDNARNTLYLQMNNLRPEDTAVYYCAAAKGPLRLSSQADYWGQGTQVTVSS
average neutralization titer [5]: 25.5 nM | average neutralization titer [6]: 21.6 nM | average neutralization titer [7]: 30.4 nM

B6: MD1223 (bispecific antibody)
chain: EVQLVESGGGLVQPGGSLKLSCAASGFTFSTSWMYWLRQAPGKGLEWVSVINTDGGTYYADSVKDRFTISRDNAKDTLYLQMSSLKSEDTAVYYCAKDWGGPEPTRGQGTQVTVSSAAAGGGGSGGGGSGGGGSGGGGSGGGGSGGGGSGGGGSEVQLVESGGGLVQPGGSLRLSCAATGFTLENKAIGWFRQTPGSEREGVLCISKSGSWTYYTDSMRGRFTISRDNAENTVYLQMDSLKPEDTAVYYCATTTAGGGLCWDGTTFSRLASSWGQGTQVTVSS
neutralization titer [8]: 2.3 nM | neutralization titer [9]: 18 nM

B7: SD1036 + SD1038 (protein)
VHH 1: EVQLVESGGGLVQAGGSLKLSCAASGRTYAMGWFRQAPGKEREFVAHINALGTRTYYSDSVKGRFTISRDNAKNTEYLEMNNLKPEDTAVYYCTAQGQWRAAPVAVAAEYEFWGQGTQVTVSS
VHH 2: EVQLVESGGGLVQPGGSLRLSCAVSISIFDIYAMDWYRQAPGKQRDLVATSFRDGSTNYADSVKGRFTISRDNAKNTLYLQMNSLKPEDTAVYLCHVSLYRDPLGVAGGMGVYWGKGALVTVSS
neutralization titer [10]: 6.8 nM | neutralization titer [11]: < 1000 nM | neutralization titer [6]: 19.3 nM

B8: MD2311 (bispecific antibody)
chain: EVQLVESGGGLVQAGDSLRLSCAASGPTFGMSAMGWFRQAPGKEREFVAAISGLGNPNYSDDVKGRFTISRENGRNTVYLQMNSLKPEDTAVYYCAQRKVYHVQGGDRPQAYDYWGQGTQVTVSSGGGGSGGGGSEVQLVESGGGLVQPGGSLRLSCAATGFTLENKAIGWFRQTPGSEREGVLCISKSGSWTYYTDSMRGRFTISRDNAENTVYLQMDSLKPEDTAVYYCATTTAGGGLCWDGTTFSRLASSWGQGTQVTVSSGGGGSGGGGSEVQLVESGGGLVQAGDSLRISCAASGRTLSIYSMGWFRQAPGKEREFVATIGWNSGRTFYPDSLKGRFTISRDNARNTLYLQMNNLRPEDTAVYYCAAAKGPLRLSSQADYWGQGTQVTVSS
average neutralization titer [5]: 21.6 nM | average neutralization titer [6]: 12.8 nM | average neutralization titer [7]: 15.3 nM

B9: MD2307 (bispecific antibody)
chain: EVQLVESGGGLVQPGGSLRLSCAATGFTLENKAIGWFRQTPGSEREGVLCISKSGSWTYYTDSMRGRFTISRDNAENTVYLQMDSLKPEDTAVYYCATTTAGGGLCWDGTTFSRLASSWGQGTQVTVSSGGGGSGGGGSEVQLVESGGGLVQAGDSLRISCAASGRTLSIYSMGWFRQAPGKEREFVATIGWNSGRTFYPDSLKGRFTISRDNARNTLYLQMNNLRPEDTAVYYCAAAKGPLRLSSQADYWGQGTQVTVSSGGGGSGGGGSEVQLVESGGGLVQAGDSLRLSCAASGPTFGMSAMGWFRQAPGKEREFVAAISGLGNPNYSDDVKGRFTISRENGRNTVYLQMNSLKPEDTAVYYCAQRKVYHVQGGDRPQAYDYWGQGTQVTVSS
average neutralization titer [5]: 30.4 nM | average neutralization titer [6]: 21.6 nM | average neutralization titer [7]: 18.1 nM

B10: SD1035 (VHH)
VHH: EVQLVESGGGLVQAGGTLRLSCAASGSAVSISRMAWYRQAPGKQRELVADIFSGGGTNYADSVKGRFTISRDNAKNTVDLQMNSLKPEDTAVYYCSARSAVAAIHWDQYDYWGQGTQVTVSS
VNA titer [1]: 74.8 nM | VNA titer [4]: > 1000 nM

B11: SD1071 (VHH)
VHH: EVQLVESGGGLVQTGESLRLSCAFSGFTYSTYWMYWVRQGPEKGLKWVSSTNAAGTVTYYAANVRDRFTASKDNAKNTLYLQMNRLKPEDTGLYYCASKDGLIVAATLDDYDYRGQGTQVTVSS
VNA titer [1]: 1260 nM | VNA titer [2]: > 1000 nM | VNA titer [3]: 111 nM | VNA titer [4]: > 1000 nM

B12: MD2314 (bispecific antibody)
chain: EVQLVESGGGLVQAGDSLRLSCAASGPTFGMSAMGWFRQAPGKEREFVAAISGLGNPNYSDDVKGRFTISRENGRNTVYLQMNSLKPEDTAVYYCAQRKVYHVQGGDRPQAYDYWGQGTQVTVSSGGGGSGGGGSEVQLVESGGGLVQAGDSLRLSCAASGPTFGMSAMGWFRQAPGKEREFVAAISGLGNPNYSDDVKGRFTISRENGRNTVYLQMNSLKPEDTAVYYCAQRKVYHVQGGDRPQAYDYWGQGTQVTVSSGGGGSGGGGSEVQLVESGGGLVQPGGSLRLSCAATGFTLENKAIGWFRQTPGSEREGVLCISKSGSWTYYTDSMRGRFTISRDNAENTVYLQMDSLKPEDTAVYYCATTTAGGGLCWDGTTFSRLASSWGQGTQVTVSS
average neutralization titer [5]: > 1000 nM | average neutralization titer [6]: 6.5 nM | average neutralization titer [7]: > 1000 nM

B13: MD2304 (bispecific antibody)
chain: EVQLVESGGGLVQPGGSLRLSCAATGFTLENKAIGWFRQTPGSEREGVLCISKSGSWTYYTDSMRGRFTISRDNAENTVYLQMDSLKPEDTAVYYCATTTAGGGLCWDGTTFSRLASSWGQGTQVTVSSGGGGSGGGGSEVQLVESGGGLVQPGGSLRLSCAVSISIFDIYAMDWYRQAPGKQRDLVATSFRDGSTNYADSVKGRFTISRDNAKNTLYLQMNSLKPEDTAVYLCHVSLYRDPLGVAGGMGVYWGKGALVTVSSGGGGSGGGGSEVQLVESGGGLVQPGGSLRLSCAVSISIFDIYAMDWYRQAPGKQRDLVATSFRDGSTNYADSVKGRFTISRDNAKNTLYLQMNSLKPEDTAVYLCHVSLYRDPLGVAGGMGVYWGKGALVTVSS
average neutralization titer [12]: 20.6 nM | average neutralization titer [11]: 18.2 nM

B14: SD1018 (VHH)
VHH: EVQLVESGGGLVQAGGSLRLSCAASGQTYHMGWFRQTPGNERESVAAVTWSGAVTRYADSVKGRFTISRDNAKNTVYLQMNSLVPEDTAIYYCAATRSMAPIIQLSPGSYDYWGPGTQVTVSS
VNA titer [1]: > 1000 nM | VNA titer [2]: > 1000 nM | VNA titer [3]: 615 nM | VNA titer [4]: > 1000 nM

B15: SD1027 (VHH)
VHH: EVQLVESGGGMVQAGGSLRLSCAASGGTFSLYHMGWFRQAPGEEREFVAAISGSGGNTYYADSVKGRFTISRDNNKNTVYLQMSSLEPEDTAVYFCAAMKWPGILRDANAYDYWGQGTQVTVSS
VNA titer [1]: 862 nM | VNA titer [2]: > 1000 nM | VNA titer [3]: > 1000 nM | VNA titer [4]: > 1000 nM

B16: SD1072 (VHH)
VHH: EVQLVESGGGLVEAGGSLRLSCAVSGRTFSMYATGWFRQAPGKEREFVAAINSSGDKTTYADSVEGRFTISRDIGTVYLQMNNLNPEDTAVYYCAAARTLAVVTIPGGYEYWGQGTQVTVSS
VNA titer [1]: 78.5 nM | VNA titer [2]: > 1000 nM | VNA titer [3]: 444 nM | VNA titer [4]: > 1000 nM
